# Measured values from patent US20100325744A1.
# Numbering of substitutions follows the chain as printed. Names and notes keep the numbering of the source.
# B1: 2F8-HG-T234A (antibody, part only; not given: 2F8 variable domains, not shown: a dimerising Fc or GST)
# heavy, part: ASTKGPSVFPLAPCSRSTSESTAALGCLVKDYFPEPVTVSWNSGALTSGVHTFPAVLQSSGLYSLSSVVTVPSSSLGTKTYTCNVDHKPSNTKVDKRVAPEFLGGPSVFLFPPKPKDTLMISRTPEVTCVVVDVSQEDPEVQFNWYVDGVEVHNAKTKPREEQFNSTYRVVSVLTVLHQDWLNGKEYKCKVSNKGLPSSIEKTISKAKGQPREPQVYTLPPSQEEMTKNQVSLACLVKGFYPSDIAVEWESNGQPENNYKTTPPVLDSDGSFFLYSRLTVDKSRWQEGNVFSCSVMHEALHNHYTQKSLSLSLGK
# B2: 2F8-HG-L236A (antibody, part only; not given: 2F8 variable domains, not shown: a dimerising Fc or GST)
# heavy, part: B1 heavy, part with A234T, L236A
# B3: 2F8-HG-Y275A (antibody, part only; not given: 2F8 variable domains, not shown: a dimerising Fc or GST)
# heavy, part: B1 heavy, part with A234T, Y275A
# B4: 2F8-HG-F273L (antibody, part only; not given: 2F8 variable domains, not shown: a dimerising Fc or GST)
# heavy, part: B1 heavy, part with A234T, F273L
# B5: 2F8-HG-F273A (antibody, part only; not given: 2F8 variable domains, not shown: a dimerising Fc or GST)
# heavy, part: B1 heavy, part with A234T, F273A
# B6: 2F8-HG-L236V (antibody, part only; not given: 2F8 variable domains, not shown: a dimerising Fc or GST)
# heavy, part: B1 heavy, part with A234T, L236V
# Tests used:
# 2F8-HG-T234A (human) = assay: self-association of HG half-molecules; non-covalent nano-electrospray mass spectrometry
# 2F8-HG-L236A (human) = assay: as above
# 2F8-HG-Y275A (human) [1] = assay: self-association; non-covalent nano-electrospray mass spectrometry at 0.01-10 µM
# 2F8-HG-Y275A (human) [2] = assay: self-association of HG half-molecules; non-covalent nano-electrospray mass spectrometry
# 2F8-HG-F273L (human) = assay: as above
# 2F8-HG-F273A (human) [3] = assay: self-association; non-covalent nano-electrospray mass spectrometry at 0.01-10 µM
# 2F8-HG-F273A (human) [4] = assay: self-association of HG half-molecules; non-covalent nano-electrospray mass spectrometry
# 2F8-HG-L236V (human) [5] = assay: self-association; non-covalent nano-electrospray mass spectrometry at 0.01-10 µM
# 2F8-HG-L236V (human) [6] = assay: self-association of HG half-molecules; non-covalent nano-electrospray mass spectrometry
binder,measurement,setting,value
B1,percentage molecules present as monomers,2F8-HG-T234A (human),> 80%
B2,percentage molecules present as monomers,2F8-HG-L236A (human),> 80%
B3,percentage monomeric at low concentrations,2F8-HG-Y275A (human) [1],100%
same,percentage molecules present as monomers,2F8-HG-Y275A (human) [2],> 80%
B4,percentage molecules present as monomers,2F8-HG-F273L (human),> 80%
B5,percentage monomeric at low concentrations,2F8-HG-F273A (human) [3],100%
same,percentage molecules present as monomers,2F8-HG-F273A (human) [4],> 80%
B6,percentage monomeric at low concentrations,2F8-HG-L236V (human) [5],100%
same,percentage molecules present as monomers,2F8-HG-L236V (human) [6],> 80%
